Results reported in US20110152166A1, “METHOD OF MODULATION OF PROTEIN PHOSPHORYLATION-DEPENDENT CONFORMATIONAL TRANSITIONS WITH LOW MOLECULAR WEIGHT COMPOUNDS” (priority 2006, published 2011).
Where a chain is given by its changes, count along the chain named. Square brackets hold non-standard residues; d marks the D form. Ends that are not written are not given here. pS = N[C@@H](COP(=O)(O)O)C(=O)O

Assays:
Test in all cases: PDK1 activity assay with T308tide
Assay type in all cases: biochemical
GST-PDK1 [Gln150Ala] = target: T1, GST-PDK1 [Gln150Ala] (Homo sapiens, UniProt O15530, Q150A); details: PDK1[Gln150Ala]; 20 μM
T1 construct: different protein constructs, comprising the full length protein or the catalytic domain alone; made in house; host or cells: HEK293 cells (pEBG-2T-PDK1 mutant)
T1 sequence (O15530 1-556 Q150A): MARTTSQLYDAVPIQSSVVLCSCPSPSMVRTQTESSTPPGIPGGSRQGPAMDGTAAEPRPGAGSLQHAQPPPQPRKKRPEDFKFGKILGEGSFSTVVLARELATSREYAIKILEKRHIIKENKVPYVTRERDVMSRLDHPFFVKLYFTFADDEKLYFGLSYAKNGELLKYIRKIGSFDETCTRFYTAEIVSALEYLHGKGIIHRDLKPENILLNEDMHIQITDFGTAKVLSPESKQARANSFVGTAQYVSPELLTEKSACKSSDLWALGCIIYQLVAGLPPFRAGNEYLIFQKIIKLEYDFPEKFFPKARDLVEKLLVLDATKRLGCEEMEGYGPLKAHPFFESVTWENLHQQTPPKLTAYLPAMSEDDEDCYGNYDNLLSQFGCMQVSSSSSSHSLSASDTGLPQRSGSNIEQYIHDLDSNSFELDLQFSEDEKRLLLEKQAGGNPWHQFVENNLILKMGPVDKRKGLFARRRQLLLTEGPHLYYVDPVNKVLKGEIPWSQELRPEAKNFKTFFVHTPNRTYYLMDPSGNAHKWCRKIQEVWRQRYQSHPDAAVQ
Procedure: (§1) Protein kinase activity tests were performed essentially as previously described (Balendran et al., 2000; Biondi et al., 2000; Biondi et al., 2001). Substrates used were either MBP (for PKCζ or polypeptides (Crosstide for PKB, S6K, SGK and PRK2; T308tide for PDK1, and Kemptide for PKA). PKA (Sigma) was measured in the presence of 100 μM cAMP. Alternatively, assays were performed in a 96 well format, aliquots spotted on p81 phosphocellulose papers (Whatmann), washed in 0.01% phosphoric acid, dried, and then exposed and analysed using Phospholmager technology (Storm, Molecular Dynamics). Activity measurements were performed in duplicates with less than 10% difference between duplicate pairs. Experiments were repeated at least twice, although most of the experiments were repeated multiple times, with similar results.
(§2) PDK1 activity assay was performed in a 20 μl mix containing 50 mM Tris-HCl pH 7.5, 0.05 mg/ml BSA, 0.1% β-mercaptoethanol, 10 mM MgCl2, 100 μM [γ^32P]ATP (5-50 cpm/pmol), 0.003% Brij, 150 ng PDK1, and T308tide (from 0.05 to 1 mM). PDK1 specific activity was approximately 5 U/mg (when measured at 1 mM T308tide). The effect of small compounds on PDK1 was repeated with proteins from different purification batches and with different protein constructs, comprising the full length protein or the catalytic domain alone, with similar results. […] This variability may be due to the PIFtide/compound-stimulated autophosphorylation of the activation loop in certain preparations having less than a 1:1 molar phosphorylation stoichiometry at this site.
(§3) PDK1 activity was measured at room temperature using a polypeptide substrate derived from the activation loop phosphorylation site of PKB, T308tide (0.1 mM). […] GST-PDK1 wt was purified in numerous occasions and the maximal activation level of different batches varied between 3 and 8 fold activation with PIFtide or compound 1. Variations in the basal activity and fold activation were also observed in mutants. Therefore, comparisons in the maximal level of activation between mutants should be performed with care. The data shown are from an experiment where PIFtide concentrations were tested between 50 nM and 20 µM and compound 1 concentrations were between 5 μM and 200 μM, in triplicate. AC50 and max. activity were estimated by fitting the data to a hyperbola using Kaleidagraph software. One Unit of PDK1 activity was defined as the amount required to catalyse the phosphorylation of 1 nmol of the T308tide in 1 min.

GST-PDK1 [Ile119Ala] = target: T2, GST-PDK1 [Ile119Ala] (Homo sapiens, UniProt O15530, I119A); details: Ile119 mutant; P-HM-RSK 20 μM
T2 construct: different protein constructs, comprising the full length protein or the catalytic domain alone; made in house; host or cells: HEK293 cells (pEBG-2T-PDK1 mutant)
T2 sequence (O15530 1-556 I119A): T1 sequence (O15530 1-556 Q150A) with I119A, A150Q
Procedure: as §1, §2, §3

GST-PDK1 [Thr148Val] = target: T3, GST-PDK1 [Thr148Val] (Homo sapiens, UniProt O15530, T148V); details: PDK1[Thr148Val]; 20 μM
T3 construct: different protein constructs, comprising the full length protein or the catalytic domain alone; made in house; host or cells: HEK293 cells (pEBG-2T-PDK1 mutant)
T3 sequence (O15530 1-556 T148V): T1 sequence (O15530 1-556 Q150A) with T148V, A150Q
Procedure: as §1, §2, §3

GST-PDK1 wt = target: T4, GST-PDK1 wt (Homo sapiens, UniProt O15530)
T4 construct: different protein constructs, comprising the full length protein or the catalytic domain alone; made in house; host or cells: HEK293 cells (pEBG-2T-PDK1)
T4 sequence (O15530 1-556): T1 sequence (O15530 1-556 Q150A) with A150Q
Procedure: as §1, §2, §3

activation of PDK1 mutant (in words) (GST-PDK1 [Gln150Ala]) | activation of PDK1 mutant (in words) (GST-PDK1 [Ile119Ala]) | activation of PDK1 mutant (in words) (GST-PDK1 [Thr148Val]) | activation of PDK1 (in words) (GST-PDK1 wt; PDK1 wild type) | activation of PDK1 (in words) (GST-PDK1 wt; concentrations up to 500 µM, data not shown) | Substance
completely abolished | completely abolished | completely abolished | activated | – | P-HM-PKB: phosphorylated HM polypeptide of PKB: KGAGGGGFPQFS(P)YSA (KGAGGGGFPQF[pS]YSA) [reference compound]
– | – | – | – | did not activate PDK1 | GFRDFDY [polypeptide comprising the complete hydrophobic motif present in PIFtide, reference compound]
